Source: patent publication US7169892B2, “Lipid-peptide-polymer conjugates for long blood circulation and tumor specific drug delivery systems” (Astellas Pharma Inc., priority 2003, dated 2007)
The star is where a group is joined. amidopropyl polyoxyethylene methyl ether = C-terminal amidopropyl PEG methyl ether; Fmoc = O=C(OCC1c2ccccc2-c2ccccc21)*

Target: T1, MMP-2 (Homo sapiens, UniProt P08253)
T1 sequence (P08253 110-660): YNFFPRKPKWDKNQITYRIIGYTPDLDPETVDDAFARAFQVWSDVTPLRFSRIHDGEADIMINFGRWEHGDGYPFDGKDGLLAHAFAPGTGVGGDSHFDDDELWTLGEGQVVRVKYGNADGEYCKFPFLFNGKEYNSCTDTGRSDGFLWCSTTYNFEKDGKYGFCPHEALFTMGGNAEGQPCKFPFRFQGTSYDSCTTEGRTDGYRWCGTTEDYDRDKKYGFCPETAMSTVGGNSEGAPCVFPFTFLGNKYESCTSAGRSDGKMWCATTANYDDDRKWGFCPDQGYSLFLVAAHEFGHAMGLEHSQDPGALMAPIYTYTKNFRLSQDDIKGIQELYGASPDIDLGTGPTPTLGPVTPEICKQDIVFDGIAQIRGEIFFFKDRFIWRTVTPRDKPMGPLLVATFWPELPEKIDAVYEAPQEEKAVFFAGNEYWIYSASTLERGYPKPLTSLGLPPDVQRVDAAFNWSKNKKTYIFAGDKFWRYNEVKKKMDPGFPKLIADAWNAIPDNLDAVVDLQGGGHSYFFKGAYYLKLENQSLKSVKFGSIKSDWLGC
Assay: Degradation of Fmoc-GPQGIAGWG-PEG by MMP-2 (gel filtration)
Format: biochemical
Conditions: per unit weight of MMP-2 and unit time, beginning (15 minutes), MMP-2 0.34 μg/ml, 37° C., FIG. 4
Experimental: After mixing in 0.5 ml of sample in 0.5 ml of acetonitrile, the mixture was filtered and gel filtration was performed.
The effects on degradation by MMP-2 when PEG bonded with Fmoc-GPQGIAGWG (SEQ ID NO:21) were evaluated.
MMP-2 solution was diluted with Tris buffer. […] The final concentration of MMP-2 was 0.34 μg/ml. […] The Fmoc-GPQGIAGWG-PEG (SEQ ID NO:22) in the filtrate was separated and quantitatively determined by gel filtration.

Substance: 9-fluorenylmethyloxycarbonyl (Fmoc)-glycyl-prolyl-glutamyl-glycyl-isoleucyl-alanyl-glycyl -tryptophanyl-glycyl (Fmoc-Gly-Pro-Gln-Gly-Ile-Ala-Gly-Trp-Gly)-amidopropyl polyoxyethylene methyl ether (Fmoc-GPQGIAGWG-{amidopropyl polyoxyethylene methyl ether}) [Fmoc-GPQGIAGWG-PEG]
- degradation rate by MMP-2 compared with Fmoc-GPQGIAGWG: virtually the same
